Measured values: PMC4622456 (mAbs, 2015)
Values belong to the binder of their own block, whether it stands above or below them.

Assays:
[1] = target: T1, recombinant human IL23 (human, UniProt Q9NPF7;P29460); assay: BLI
[2] = target: T1, recombinant human IL23; assay: cell-based or functional assay
[3] = target: recombinant cynomolgus IL23 (Macaca fascicularis, UniProt H6WS56;H6WS55); assay: SPR
[4] = target: T1, recombinant human IL23; assay: BLI; remark: listed apart in the source
[5] = target: recombinant rat IL23 (Rattus norvegicus, UniProt Q91Z84;Q9R278); assay: SPR
[6] = target: recombinant mouse IL23 (Mus musculus, UniProt Q9EQ14;P43432); assay: SPR
Sequence of recombinant mouse IL23 (Q9EQ14 22-196, chain 1 of 2): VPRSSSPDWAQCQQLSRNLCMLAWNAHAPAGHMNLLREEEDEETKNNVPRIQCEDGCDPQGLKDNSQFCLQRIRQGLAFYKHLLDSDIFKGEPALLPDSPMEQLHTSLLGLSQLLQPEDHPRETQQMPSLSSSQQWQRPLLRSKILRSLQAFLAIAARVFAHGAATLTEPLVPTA
Sequence of recombinant mouse IL23 (P43432 23-335, chain 2 of 2): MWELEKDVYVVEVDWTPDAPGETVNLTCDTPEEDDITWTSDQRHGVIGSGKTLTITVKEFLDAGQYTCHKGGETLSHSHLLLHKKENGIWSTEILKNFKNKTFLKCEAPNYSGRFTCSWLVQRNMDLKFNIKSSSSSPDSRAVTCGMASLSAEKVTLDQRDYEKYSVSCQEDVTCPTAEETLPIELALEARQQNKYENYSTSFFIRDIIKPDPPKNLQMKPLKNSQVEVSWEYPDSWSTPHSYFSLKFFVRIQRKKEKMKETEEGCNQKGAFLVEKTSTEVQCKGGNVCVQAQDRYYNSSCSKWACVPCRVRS

[7] = target: T1, recombinant human IL23; assay: SPR
[8] = target: T1, recombinant human IL23; assay: SPR; remark: listed apart in the source

T1 sequence (Q9NPF7 20-189, chain 1 of 2): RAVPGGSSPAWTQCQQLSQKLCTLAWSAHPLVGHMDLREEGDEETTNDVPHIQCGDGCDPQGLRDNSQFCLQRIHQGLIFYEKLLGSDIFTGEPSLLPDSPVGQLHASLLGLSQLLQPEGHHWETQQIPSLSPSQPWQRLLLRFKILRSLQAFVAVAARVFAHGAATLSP
T1 sequence (P29460 23-328, chain 2 of 2): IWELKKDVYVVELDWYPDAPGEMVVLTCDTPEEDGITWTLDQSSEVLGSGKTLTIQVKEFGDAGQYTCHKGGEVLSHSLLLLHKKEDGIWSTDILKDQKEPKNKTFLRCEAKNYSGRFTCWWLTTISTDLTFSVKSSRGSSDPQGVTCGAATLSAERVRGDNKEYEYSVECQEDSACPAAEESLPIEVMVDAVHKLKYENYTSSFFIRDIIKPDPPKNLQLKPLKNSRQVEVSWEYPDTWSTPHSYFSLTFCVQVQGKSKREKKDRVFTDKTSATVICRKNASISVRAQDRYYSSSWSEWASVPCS

B1: 18E5 (antibody, V domains shown)
VH: EVQLQQSGPELVKPGAAVKMSCKASGYTFTRYLIHWVKQKPGQGLEWIGYINPYNDGTKYNEKFKGKATLTSDKSSSTAYMELSSLTSEDSAVYYCTSNWDLDYWGQGTTLTVSS
VL: DIVMTQSPATLSVTPGDRVSLSCRASQSISDYLYWYQQKSHESPRLLIKFASQSISGIPSRFTGSGSGSDFTLSIDSVEPDDVGVFFCQNGHSFPFTFGGGTKLEIK
Kd [1]: < 0.01 nM
Inhibition of IL23 induced IL17 production in mouse splenocytes (IC50, pM) [2]: < 13 pM

B2: 26F7 (antibody, V domains shown)
VH: EVQLQQSGPELVKPGASVKISCKASGYTFTDYYMNWVRQSHGESLEWIGDFNHNNDVITYNPKFKGKVTLTVEKSSTTAYMELRSLSSEDSAVYYCARGLRGYYAMDYWGQGTSVTVSS
VL: DIVLTQSPASLAVSLGQRATISCRASKSVRFSDYFYMHWYQQKPGQPPKLLIYLASNLESGVPARFSGSGSGTDFTLNIHPVEEEDAATYYCQNSRELPYTFGGGTKLEIK
Kd [1]: 0.028 nM
Inhibition of IL23 induced IL17 production in mouse splenocytes (IC50, pM) [2]: 9 pM

B4: 34G3 (antibody, V domains shown)
VH: EFQLQQSGPELVKPGASVKISCKASGYSFTDYNMNWVKQSKGKSLEWIGVIIPNYGFTSYNQNFKGKATLTVDQSSSTAHMQLNSVTSEDSAVYYCVRDGGILLWYLDVWGTGTTVTVSS
VL: DVVMTQTPLSLPVSLGDQASISCRSSQSLVHSNGNTYLHWYLQKPGQSPKLLIYKVSNRFSGVPDRFSGSGSGTDFTLKISRVEAEDLGVYFCSQSTHVPYTFGGGTKLEIN
Kd [1]: 0.033 nM
Inhibition of IL23 induced IL17 production in mouse splenocytes (IC50, pM) [2]: 8 pM

B5: BI 655067 (VH 05-Vk65 IgG1) (antibody, V domains shown)
VH: QVQLVQSGAEVKKPGSSVKVSCKASGFTFTDQTIHWVRQAPGQGLEWMGYIYPRDDSPKYNENFKGKVTLTADKSTSTAYMELSSLRSEDTAVYYCAIPDRSGYAWFIYWGQGTLVTVSS
VL: DIQMTQSPSSLSASVGDRVTITCKASRDVAIAVAWYQQKPGKVPKLLLFWASTRHTGVPDRFSGSGSGTDFTLTISSLQPEDLADYYCHQYSSYPFTFGQGTKLEIK
Kd [3]: < 0.01 nM
kon(serum)/kon(buffer) [4]: 1.2
binding result [5]: no binding (tested: 1.2 μM)
binding result [6]: no binding (tested: 1.2 μM)
Kd [7]: < 0.01 nM

B6: VH 36-Vk65 IgG1 (antibody, V domains shown)
VH: QVQLVQSGAEVKKPGSSVKTSCKASGGTFTDQTIHWVRQRPGQGLEWMGYIYPRDDSPKYNENFKGRVTITADKSTSTAYMELSSLRSEDTAVYYCAIPDRSGYAWFIYWGQGTLVTVSS
VL: DIQMTQSPSSLSASVGDRVTITCKASRDVAIAVAWYQQKPGKVPKLLLFWASTRHTGVPDRFSGSGSGTDFTLTISSLQPEDLADYYCHQYSSYPFTFGQGTKLEIK
Kd [7]: 0.096 nM

B10: VH 36-Vk78 IgG1 (antibody, V domains shown)
VH: QVQLVQSGAEVKKPGSSVKTSCKASGGTFTDQTIHWVRQRPGQGLEWMGYIYPRDDSPKYNENFKGRVTITADKSTSTAYMELSSLRSEDTAVYYCAIPDRSGYAWFIYWGQGTLVTVSS
VL: DIQMTQSPSSLSASVGDRVTITCKASRDVAIAVAWYQQKPGKVPKLLLFWASTRHTGVPDRFSGSGSRTDFTLTISSLQPEDLADYYCHQYSSYPFTFGSGTKLEIK
Kd [7]: < 0.01 nM

B12: BI 655068 (VH 02-Vk65 IgG1) (antibody, V domains shown)
VH: QVQLVQSGAEVKKPGSSVKVSCKASGYTFTDQTIHWMRQAPGQGLEWIGYIYPRDDSPKYNENFKGKVTITADKSTSTAYMELSSLRSEDTAVYYCAIPDRSGYAWFIYWGQGTLVTVSS
VL: DIQMTQSPSSLSASVGDRVTITCKASRDVAIAVAWYQQKPGKVPKLLLFWASTRHTGVPDRFSGSGSGTDFTLTISSLQPEDLADYYCHQYSSYPFTFGQGTKLEIK
Kd [3]: < 0.01 nM
kon(serum)/kon(buffer) [4]: 1
binding result [5]: no binding (tested: 1.2 μM)
binding result [6]: no binding (tested: 1.2 μM)
Kd [7]: 0.015 nM

B15: BI 655066 (VH 02-Vk66 IgG1) (antibody, V domains shown)
VH: QVQLVQSGAEVKKPGSSVKVSCKASGYTFTDQTIHWMRQAPGQGLEWIGYIYPRDDSPKYNENFKGKVTITADKSTSTAYMELSSLRSEDTAVYYCAIPDRSGYAWFIYWGQGTLVTVSS
VL: DIQMTQSPSSLSASVGDRVTITCKASRDVAIAVAWYQQKPGKVPKLLIYWASTRHTGVPSRFSGSGSRTDFTLTISSLQPEDVADYFCHQYSSYPFTFGSGTKLEIK
Kd [3]: < 0.01 nM
kon(serum)/kon(buffer) [4]: 1.2
binding result [5]: no binding (tested: 1.2 μM)
binding result [6]: no binding (tested: 1.2 μM)
Kd [7]: < 0.01 nM

B16: VH 65-Vk78 IgG1 (antibody, V domains shown)
VH: QVQLVQSGAEVKKPGSSVKVSCKASGGTFTDQTIHWVRQAPGQGLEWMGYIYPRDDSPKYNENFKGRVTLTADKSTSTAYMELSSLRSEDTAVYFCARPDRSGYAWFIYWGQGTLVTVSS
VL: DIQMTQSPSSLSASVGDRVTITCKASRDVAIAVAWYQQKPGKVPKLLLFWASTRHTGVPDRFSGSGSRTDFTLTISSLQPEDLADYYCHQYSSYPFTFGSGTKLEIK
Kd [7]: < 0.01 nM

B17: VH 02-Vk78 IgG1 (antibody, V domains shown)
VH: QVQLVQSGAEVKKPGSSVKVSCKASGYTFTDQTIHWMRQAPGQGLEWIGYIYPRDDSPKYNENFKGKVTITADKSTSTAYMELSSLRSEDTAVYYCAIPDRSGYAWFIYWGQGTLVTVSS
VL: DIQMTQSPSSLSASVGDRVTITCKASRDVAIAVAWYQQKPGKVPKLLLFWASTRHTGVPDRFSGSGSRTDFTLTISSLQPEDLADYYCHQYSSYPFTFGSGTKLEIK
Kd [7]: < 0.01 nM

Results, then the binder that gave them:

Kd [1]: 0.026 nM
Inhibition of IL23 induced IL17 production in mouse splenocytes (IC50, pM) [2]: 197 pM
B3: 15C11 (antibody, V domains shown)
VH: EVQLQQSGPVLVKPGASVKMSCKASGYTFTDYYMNWVKQSHGKSLEWIGVIIPYNGGTSYNQKFKGKATLTVDKSSSTAYMELNSLTSEDSAVYYCARDGHRWYFDVWGTGTTVTVSS
VL: DVVMTQTPLSLPVSLGDQASISCRSSQSLVHSNGNTYLHWYLQKPGQSPKLLIYKVSNRFSGVPDRFSGSGSGTDFTLKINRVEAEDLGVYFCSQSTHVPYTFGGGTQLEIK

Kd [7]: < 0.01 nM
B7: VH 65-Vk66 IgG1 (antibody, V domains shown)
VH: QVQLVQSGAEVKKPGSSVKVSCKASGGTFTDQTIHWVRQAPGQGLEWMGYIYPRDDSPKYNENFKGRVTLTADKSTSTAYMELSSLRSEDTAVYFCARPDRSGYAWFIYWGQGTLVTVSS
VL: DIQMTQSPSSLSASVGDRVTITCKASRDVAIAVAWYQQKPGKVPKLLIYWASTRHTGVPSRFSGSGSRTDFTLTISSLQPEDVADYFCHQYSSYPFTFGSGTKLEIK

Kd [7]: < 0.01 nM
B8: VH 36-Vk66 IgG1 (antibody, V domains shown)
VH: QVQLVQSGAEVKKPGSSVKTSCKASGGTFTDQTIHWVRQRPGQGLEWMGYIYPRDDSPKYNENFKGRVTITADKSTSTAYMELSSLRSEDTAVYYCAIPDRSGYAWFIYWGQGTLVTVSS
VL: DIQMTQSPSSLSASVGDRVTITCKASRDVAIAVAWYQQKPGKVPKLLIYWASTRHTGVPSRFSGSGSRTDFTLTISSLQPEDVADYFCHQYSSYPFTFGSGTKLEIK

Kd [8]: < 0.01 nM
B9: BI 655066, NS0 derived (human IgG1 Fc L234A, L235A) (antibody, V domains shown)
VH: QVQLVQSGAEVKKPGSSVKVSCKASGYTFTDQTIHWMRQAPGQGLEWIGYIYPRDDSPKYNENFKGKVTITADKSTSTAYMELSSLRSEDTAVYYCAIPDRSGYAWFIYWGQGTLVTVSS
VL: DIQMTQSPSSLSASVGDRVTITCKASRDVAIAVAWYQQKPGKVPKLLIYWASTRHTGVPSRFSGSGSRTDFTLTISSLQPEDVADYFCHQYSSYPFTFGSGTKLEIK

Kd [7]: 0.107 nM
B11: VH 65-Vk65 IgG1 (antibody, V domains shown)
VH: QVQLVQSGAEVKKPGSSVKVSCKASGGTFTDQTIHWVRQAPGQGLEWMGYIYPRDDSPKYNENFKGRVTLTADKSTSTAYMELSSLRSEDTAVYFCARPDRSGYAWFIYWGQGTLVTVSS
VL: DIQMTQSPSSLSASVGDRVTITCKASRDVAIAVAWYQQKPGKVPKLLLFWASTRHTGVPDRFSGSGSGTDFTLTISSLQPEDLADYYCHQYSSYPFTFGQGTKLEIK

Kd [3]: 0.016 nM
kon(serum)/kon(buffer) [4]: 1.2
binding result [5]: no binding (tested: 1.2 μM)
binding result [6]: no binding (tested: 1.2 μM)
Kd [7]: 0.036 nM
B13: BI 655069 (VH 05-Vk66 IgG1) (antibody, V domains shown)
VH: QVQLVQSGAEVKKPGSSVKVSCKASGFTFTDQTIHWVRQAPGQGLEWMGYIYPRDDSPKYNENFKGKVTLTADKSTSTAYMELSSLRSEDTAVYYCAIPDRSGYAWFIYWGQGTLVTVSS
VL: DIQMTQSPSSLSASVGDRVTITCKASRDVAIAVAWYQQKPGKVPKLLIYWASTRHTGVPSRFSGSGSRTDFTLTISSLQPEDVADYFCHQYSSYPFTFGSGTKLEIK

Kd [8]: < 0.01 nM
B14: BI 655066, CHO derived (antibody, V domains shown)
VH: QVQLVQSGAEVKKPGSSVKVSCKASGYTFTDQTIHWMRQAPGQGLEWIGYIYPRDDSPKYNENFKGKVTITADKSTSTAYMELSSLRSEDTAVYYCAIPDRSGYAWFIYWGQGTLVTVSS
VL: DIQMTQSPSSLSASVGDRVTITCKASRDVAIAVAWYQQKPGKVPKLLIYWASTRHTGVPSRFSGSGSRTDFTLTISSLQPEDVADYFCHQYSSYPFTFGSGTKLEIK
